Laboratory results reported in IntAct's records for PubMed 9389648.

B1: Mothers against decapentaplegic homolog 2 (Homo sapiens), Q15796 (parent)
chain: MSSILPFTPPVVKRLLGWKKSAGGSGGAGGGEQNGQEEKWCEKAVKSLVKKLKKTGRLDELEKAITTQNCNTKCVTIPSTCSEIWGLSTPNTIDQWDTTGLYSFSEQTRSLDGRLQVSHRKGLPHVIYCRLWRWPDLHSHHELKAIENCEYAFNLKKDEVCVNPYHYQRVETPVLPPVLVPRHTEILTELPPLDDYTHSIPENTNFPAGIEPQSNYIPETPPPGYISEDGETSDQQLNQSMDTGSPAELSPTTLSPVNHSLDLQPVTYSEPAFWCSIAYYELNQRVGETFHASQPSLTVDGFTDPSNSERFCLGLLSNVNRNATVEMTRRHIGRGVRLYYIGGEVFAECLSDSAIFVQSPNCNQRYGWHPATVCKIPPGCNLKIFNNQEFAALLAQSVNQGFEAVYQLTRMCTIRMSFVKGWGAEYRRQTVTSTPCWIELHLNGPLQWLDKVLTQMGSPSVRCSSMS
partner: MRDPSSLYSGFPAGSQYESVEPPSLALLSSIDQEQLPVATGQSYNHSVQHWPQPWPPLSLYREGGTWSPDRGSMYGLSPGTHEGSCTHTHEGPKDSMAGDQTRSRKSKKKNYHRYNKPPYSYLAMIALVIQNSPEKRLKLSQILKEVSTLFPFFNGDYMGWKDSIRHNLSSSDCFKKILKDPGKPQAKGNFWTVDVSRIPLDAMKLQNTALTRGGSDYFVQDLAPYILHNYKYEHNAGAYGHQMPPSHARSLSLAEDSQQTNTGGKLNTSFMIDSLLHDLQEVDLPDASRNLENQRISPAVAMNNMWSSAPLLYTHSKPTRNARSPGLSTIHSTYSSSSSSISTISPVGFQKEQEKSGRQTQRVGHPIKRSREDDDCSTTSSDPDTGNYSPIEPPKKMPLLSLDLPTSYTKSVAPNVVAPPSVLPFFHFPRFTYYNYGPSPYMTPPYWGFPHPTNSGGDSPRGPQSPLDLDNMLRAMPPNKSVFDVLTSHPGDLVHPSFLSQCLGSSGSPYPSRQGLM

Variants of: B1
Settings: with foxh1_xenla foxh1, P70056

Row | effect of a mutation on the interaction | Variant
1 | disrupting interaction | S464A;S465A;S467A
2 | disrupting interaction | D450E
